Data on 41 sequences can be found in the nanobody polyreactivity screen of Harvey et al. (2022).

This data set can be described thus: yeast display, Sf9 membrane polyspecificity reagent, FACS + sequencing; frameworks hold sequencing errors. An outline of the steps: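 Nanobodies came from a synthetic yeast display library in Saccharomyces cerevisiae BJ5465, induced with galactose for 36–48 hours and stained for 1 hour at 4 °C with 10% biotinylated, detergent-solubilized Sf9 membrane reagent. Cells were enriched on streptavidin microbeads and then FACS-sorted, with low and high (top ~1%) gates set on anti-HA fluorescence for expression and streptavidin fluorescence for reagent binding. Each polyreactivity label reflects the gate a clone came from. Genes were amplified by colony PCR, sequenced by MiSeq 2 × 250 and filtered by CDR length.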
In the case of “QVQLVESGGGLVQAGGSLRLSCAASGRIFTANAMGCYIQAPGKERELVAAISWRGGSTYYADSVKGRFTISRDNAKNTVYLQMNSLKPEDTAVYYCNKVGATWRQWFGYWGQGTQVTVSS”, the “polyreactivity (PSR sort gate)” value was “high polyreactivity”.

As for “QVQLLETGGGLVQAGGSLRLSCAPSGFTIYRYAMGWYKQAPGKERELVAAISSGTSTYYADTVKGRFTISRDNAKKTVYLQINSLKPEVTEVYYCAVAGVSLYGTLYDYWGLGTQVTVSS”, the “polyreactivity (PSR sort gate)” value is listed as “high polyreactivity”.

Regarding “QVQLVESGGGLVQAGGSLRLSCAASGSTLPTNAMLWYRQAPGKEREFVAAISDNGGSTYYADSVKGRFTISRDNAKNTVYLQMNSLKPEDTAVYYCAADNFGPEFYYWGQGTQVTVSS”, the “polyreactivity (PSR sort gate)” value is “low polyreactivity”.

As for “QVQLVESGGGLVQAGGSLSLICAASRRSFYHYTMGWSRQAPGKERELVAAMTSGGSTYYADSVKGRFTISRDNAKNTVYLQMNSLKPEDTAVYYCARVRPLYDYSRYDYWGQRTQVTVSS”, the “polyreactivity (PSR sort gate)” value is “high polyreactivity”.

As to “QVQLVESGGGLVQAGGSLRLSCAASGSTFARYAMGWYRQAPGKERELVAGISTSGGRTYYADSVKGRFTISRDNAKNTVYLQMTSLKPEDTAVYYCAKALSQTWYDGQYGYWGQGTQVTVSS”, the “polyreactivity (PSR sort gate)” value is on record as “low polyreactivity”.

As for “QVQPQESGGGPVQACGSLRLSCAASGNILDADILGWYRLVPAKERELVASITDGGSTNYAESVKGRFTISRDNAKNTVYLQMNSLKPEDTAVYYCARRHRVFPSRIGHDYWGQGSQVTVSS”, the “polyreactivity (PSR sort gate)” value was “low polyreactivity”.

For “QVQLVESGGGLVQAGGSLRLSCAASGRIFYYYAMGWYRPAPGKERELVAAITSGGRTYYADSVKGRFTISRDNAKNTVYLQMNSLKPEDTAVYYCAAERTYTYLGPGYEYWGQGTQVTVSS”, the “polyreactivity (PSR sort gate)” value was “low polyreactivity”.

“QVQLVESGGGLVQAGGSLRLSCAASGITFDRYAMGWYRQAPGKERELVAAITSGGRTYYADSVKGRFTISRDNAKNTVYLQMNSLKPEDTAVYYCNATRGQYVGRYYYWGQGTQVTVSS”: the “polyreactivity (PSR sort gate)” value was “high polyreactivity”.

For the sequence “QVQLVESVGGLVQAGGSLRLSCAASGSIIFTNVMGWYRQAPGKDREFVAAITGGGGSTYYADSVKGRFTISRDNAKNTVYLQMNSLKPEDTAVYYCATKAKPRSGYNYWGQGTQVTVSS”, the “polyreactivity (PSR sort gate)” value was “low polyreactivity”.

On to “QVQLVESGGGLVQAGGILRLSCAASGIIFRVNAMGWYRKAPGKERELVAAISGSGGRTYYADSVKGRFTISRDNAKNTVYLQMNSVKPEDTAVYYCAAHLLHYRGDYWGQGTQETVSS”, for which the “polyreactivity (PSR sort gate)” value was “high polyreactivity”.

In the case of “QVHLVESGGGLVQAGGSLRLSCAASGRILGYYAMVWYRQAPGKERELVAAISRGGRTNYADSVKGRFTISRDNAKNTVYLQMNSLKPEDTAVYYCAKDVAGLFHVGALYYYWGQGTQVTVSS”, the “polyreactivity (PSR sort gate)” value is “low polyreactivity”.

Take “QVQLVESGGGLVQAGGSLRLICAASGSIFDVNAMGWYRQAPWKERELVAAISDSGGSTYYADSVKGRFTISRDNAKITVYLQMNSLKPEDTAVYYCNAVWSWYNYDDFDYWGQGTQVTVSS”: the “polyreactivity (PSR sort gate)” value is “low polyreactivity”.

For the sequence “QVQLVESGGGLVQAGGSLSLSCAASGSIFRYYAMGWYRQAPGKERELVAAITSGGRTNYADSVKGRFTISRDNAKNTVYLQMNSLKREDTAVYYCNKCYNAVWRYRGDYWGQGTQVTVSS”, the “polyreactivity (PSR sort gate)” value is reported as “high polyreactivity”.

As for “QVQLVESGGGLVQAGGSLRLSCAASGSIFHANAMGWYRQAPGKERELVAAISQSCDTTYYADSVKGRFTISRDNAKNTVYLQMNSLKPEDTAVYYCAAEEGYGAFWYDYWGQGTQVTVSS”, the “polyreactivity (PSR sort gate)” value was “high polyreactivity”.

Consider “QVQLVESGGGLVQAGGSLRLSCAASGNTFVRYAMGWYRQAPGKERELVAAITRSGSSTYYADSVKGRFTISRDNAKNTVYLQMNSLKPEDTAVYYCAAYSWYYAGYDYWGQGTQVTVSS”, for which the “polyreactivity (PSR sort gate)” value is listed as “high polyreactivity”.

In the case of “QVQLVESGGGLVQPGRSLRLSCAASGFTFYIYAMGWYRQAPGKERELVAAISGRGSSTYYADSVKGRFTISRDNAKNSVYLQMNSQTPEDTAVYYCAAGKSKYGVRGDYWGQGTQVTVSS”, the “polyreactivity (PSR sort gate)” value is “high polyreactivity”.

Turning to “QVQLVESGGGLVQAGGSLRLSCAASGRIFVYNAMGWYRQAPGKEREFVASINWSGSSTYADSVKGRFTISRDNAKNTVYLQMNSLKQEDTAVYYCAARRWRYEAYRSQYDYGYWGQGTQVTVSS”, the “polyreactivity (PSR sort gate)” value is listed as “low polyreactivity”.

“QVQLVESWGGLVKAGGSLRLSCAASGRTIRGYTMGWNRQAPGKQRELVAAISQSGGRTHYADSVKGRFTISRDNAKNTVYLEMKSLKPEDTAVYYCAARGQRERSYPLYDYWGQGTQVTVSS”: the “polyreactivity (PSR sort gate)” value is given as “high polyreactivity”.

Consider “QVHLVESGGGLVQAGGSLRLSSAASGSTFPVYAMGWYRQAPGKERELVASISSGGSTYYADSVQGRFTISRDNAKNSVYFQKNSLKPEDTAVYYCAKDPWVDSFVIYDDWGQGTEVTVSS”, for which the “polyreactivity (PSR sort gate)” value is listed as “low polyreactivity”.

As to “QVQLVESGGGLVQAGGSLRLSCAASGSTFGYYTMGWYRQEPVKETELVAAISYSGGRTFYADSVKGRFTISRDNAKNSVYLQMKSLKTEDTEVYYCNKRYIPSYLSHLDYWGQGTQVTVSS”, the “polyreactivity (PSR sort gate)” value is recorded as “high polyreactivity”.

As for “QVQLVESGGGLVQAGGSLRLSCAASGLTFYYYYTMGWYRQAPGKERELVAAISRSGSTNYADSVKGRFTISRDNAKNTVYLQMNSLKPEDTAVYYCARSYRSDGSRFGYWGQGTQVTVSS”, the “polyreactivity (PSR sort gate)” value is reported as “low polyreactivity”.

Turning to “QVQLVESGGGLVQAGGSLRLSCAASGSIFYKYALGWYRQAPGKERELVASITWSDGNTNYADSVKGRFTISRDNAKNTVYLQMNSLKPEDTAVYYCADGGWYPTSRIFDYWGQGTQVTVSS”, the “polyreactivity (PSR sort gate)” value is given as “low polyreactivity”.

On to “QVQLVESGGGLVQAGGSLRLSCAASGRIFIYNAMGWYTQAPGKERELVAAINRSGVSTHYADSVKGRFTISRDNAKNSVYLQMNSLKPEDTAVYYCARTVYGARSYDYWGQGTQVTVSS”, for which the “polyreactivity (PSR sort gate)” value was “low polyreactivity”.

On to “QVQLVESGGGLVQAGGSLRLSCAASGRTFDYNAMGWSRQAPGKERELVAAISSSGGSTYYADSVKGRFTISRDNAKNTVYLQMNSLKPEDTAVYYCATLYPRKSIYYYWGQGTQVTVSS”, for which the “polyreactivity (PSR sort gate)” value is “high polyreactivity”.

For “QVQLVESGGGLVQAGGSLRLSCAASGRTYIVNVMGWYRQAPGKERELVAAINWSTGRTYYADSVKGRFTISRDNAKNTVYLQMNSLKPEDTAVYYCAAEEFDSFWWGYYEMDYWGQGTQVTVSS”, the “polyreactivity (PSR sort gate)” value is “high polyreactivity”.

Take “QVQLVESGGGLVQAGGSLRLSCAASGSTFRGYAMGWYRQAPGKERELVAAITSSGGSTYYADSVKGRFTISRDNAKNTVYLQMNSLKPEDTAVYYCAAEGGYWYTITYSYWLDYWGQGTQVTVSS”: the “polyreactivity (PSR sort gate)” value is reported as “low polyreactivity”.

Turning to “QVQLVESGGGLVQAGGSLRLSSAGSGSTLAYNAMGWYRQAPGKERELVAAISRGTSTYYADSVKGRFTISRDNAKNTVYLQMNSLKPEDTEVYYCAADYVIQYREYDSWGQGTQVTVSS”, the “polyreactivity (PSR sort gate)” value is “low polyreactivity”.

On to “QVQLVESGGGLVQAGGSLRLICAASGFIFDYNTMGWYRPAPGKERELVAGITSGGSTNYADSVKGRFTISRDNAKNTVYLQMNSLKPEDTAVYYCATVDDEYYGYDYWGQGSQVTVSS”, for which the “polyreactivity (PSR sort gate)” value is on record as “low polyreactivity”.

Turning to “QVQLQESGGGLLQAGGSLRLSCAASGIIFDNPNKGWYRQAPGKERDLVATINSGATTNYADSVKGRFTISRDNAKNTVYLQMNSLIPVDTAVYYCAVDLSPTYFYYWGQGTQVTVSS”, the “polyreactivity (PSR sort gate)” value is “high polyreactivity”.

For “QVQLVESGGGLVQAGGSLRLSCAASGSILPTNAMGWYRQAPGKERELGASITRSGGSTYYADSVKGRFTISRDNAKNTVYLQMNSLKPEDTAVYYCNARGFTRYTVGRNYWGQGTQVTVSS”, the “polyreactivity (PSR sort gate)” value is “high polyreactivity”.

For “QVQLVESGGGLVQAGGSLRLSCAASGITFLSNAMGWYRQAPGKERELVAAIDWRGDSTYYADSVKGRFTISRDNAKNTGYLQMNRLKPEDTAVYYCNADISGSGQWDGYDYWGQGTQVTVSS”, the “polyreactivity (PSR sort gate)” value was “low polyreactivity”.

In the case of “QVQLVESGGGLVQAGGSLRLSCAASGSTFGYYTMGWYRQAPGKERELVAALTWSGGSTYYADSVKGRFTISRDNAKNTVYLQMNSLKPEDTAVYYCAADDYWTPFGYWGQGSQVTVSS”, the “polyreactivity (PSR sort gate)” value is “low polyreactivity”.

Turning to “QVQLVESGGGLVQAGGSLRLSCAASGLIFYPYAMGWYRQAPGKERELVAAISSGGSTNYADSVKGRFTISRDNAKNTVYLQMNSLKPEDTAVYYCAKRYPSFRGYGSFRYSGRKYWGQGTQVTVSS”, the “polyreactivity (PSR sort gate)” value was “high polyreactivity”.

“QVQLVESGGGLVQAGGSLRLSCAASGSILYVYAMGWYRQAPGKERELVAAISNRDGSTYYADSVKGRFTISRDNAKNTVYLQMNSLKPEDTAVYYCNADGYGDYSFLKYRFEYDYWGQGTQVTVSS”: the “polyreactivity (PSR sort gate)” value was “low polyreactivity”.

Regarding “QVQLVESGGGIVQAGGSLRLSCAASGGIFFPNAMGWYRQAPGKERELVAAISWSAGSTYYADSVKVRFTISRDNAKNTVYLKKISLIPEDTAVYYCAAAGSNYTVWYGYYYWGQGTQVTVSS”, the “polyreactivity (PSR sort gate)” value is recorded as “low polyreactivity”.

As to “HVQLVESGGGLVQAGGSLRLSCAASGRIFPGNVMGWYRHAPGKERELVAGIDSSGGSTSYADSVKGRFTISRDNAKNSVYLQMNSLKPEDTAVYYCAKVRDQARYQWGYQEFDYWGEGTQVTVSS”, the “polyreactivity (PSR sort gate)” value is “low polyreactivity”.

For the sequence “QVQLVESGGGLVQAGGSLRLSCPASGRIFSFYALGGYRQAPGKERELVAAITYTDGSTYADSVKGRFTISRDNAKNTVYLQMNSLKPEDTAVYYCNAYRGWLLSREMDYWGQGTQVTVSS”, the “polyreactivity (PSR sort gate)” value was “low polyreactivity”.

As to “QVQLVESGGGLVQAGGSLRLSCAATGSIFASYAMGWYRQAPGKERELVASITRVDSTNYADSVKGRFTISRDNAKNTVYLQMNSLKPEDTAVYYCAADYYIVLTKSDGLFGSWGQGTQVTVSS”, the “polyreactivity (PSR sort gate)” value is on record as “low polyreactivity”.

As for “QVQLVESGGGLVQAGGRLRLSCAASGFTFTRYTMGWYRQAPGKERELVARITRSGASTYYADSVKGRFTISRDNAKNTVYLQMNSLKPEDTAVYYCAADTWSYTTRYYYWGQGTQVTVSS”, the “polyreactivity (PSR sort gate)” value was “high polyreactivity”.

For the sequence “QVQLVESGGGLVQAGGSLRLSCAASGSIFYHYAMGWYIQAPGKERELVAAISWRGASTYYADSVKGRFTISRDNAKNTVYLQMNSLKPEDTAVYYCARLSSSHPLYRDDYWGQGTQVTVSS”, the “polyreactivity (PSR sort gate)” value is given as “high polyreactivity”.

On to “QFQLVESGGGLVQAGGSLRLSCAASGSIFQSYAMVWYRQAPGKERELVAAITRSGGRTYYADSVKGRFTISRDNAKNTVYLQMNSLKPEDTAVYFCAAFGWGYGYWGQGTQVTVSS”, for which the “polyreactivity (PSR sort gate)” value is reported as “high polyreactivity”.
